Tests used:
HEK293-T = assay: Luciferase expression in normoxia vs 24 h hypoxia, transiently transfected HEK293-T; assay type: cell-based, human; conditions: for relative rank of promoter strength: 24 h hypoxia vs 24 h normoxia
Protocol: HEK293-T are seeded at a density of 20%. Once they reached a confluence between 60 and 80%, the media is changed with DMEM (#21885-025—Thermo Scientific) supplemented with 10% FBS (Gibco, 26140). After 3 hours, the cells were transfected by a transfection mix. The transfection mix is prepared by adding DNA ([…] per 6 well plate) and PEI 25 kDA (#23966-1—Polyscience) in a ratio of 1:3 in sterile DPBS (#14190169—ThermoFisher Scientific). After mixing, the transfection mix is incubated at room temperature for 30 minutes and then added directly to the cells. After 16 to 18 h post transfection, the media is changed to DMEM+2% FBS. The transfected DNA was one of the vectors where the promoter constructs (RTV-015, HYBT, RTV-016, HV3C) or a control promoter (CMV-IE) were used to drive luciferase expression and β-galactosidase containing pcDNA6 plasmid. The β-galactosidase containing plasmid was used as internal control for transfection efficiency (Thermofisher, V22020).
(§1) After transfection the cells were incubated for 24 hrs in normoxic conditions (20% oxygen). Induction of the promoters was assessed by using luciferase activity after 24 hrs in normoxia or hypoxia (5% oxygen, 10% carbon dioxide and 85% nitrogen). Hypoxia was achieved by gas displacement in a sealed hypoxia chamber.
Luciferase activity was measured using LARII (Dual Luciferase Reporter 1000 assay system, Promega, E1980).
Media was removed from the cells at the respective time point (0, 3, 5, 24 hrs after induction). The cells were washed once in 300 μl of DPBS. Cells were lysed by adding 100 μl of passive lysis buffer to the cells and incubation with rocking for 15 minutes. The cell debris was pelleted by centrifugation of the plate at max speed in a benchtop centrifuge for 1 min. 10 μl of supernatant was pipetted into white 96-well plate and luminescence measured by addition of 50 μl of LARII substrate.
β-galactosidase activity was measured as per manufacturer's instructions (Mammalian βGalactosidase Assay Kit, 75707/75710, Thermo Scientific) using 25 μl of lysate. 25 μl of lysate was transferred into a microplate well and mixed with 25 μl of β-galactosidase Assay Reagent, equilibrated to room temperature. The mixture was incubated at 37° C. for 30 min and absorbance measured at 405 nm.
Luciferase readouts were normalised to β-galactosidase to produce normalised relative luminometer units (RLUs).

CHO-GSK1SV = assay: Luciferase expression in normoxia vs 24 h hypoxia, transiently transfected CHO-GS suspension cells; assay type: cell-based, chinese hamster; conditions: for relative rank of promoter strength: transient CHO-GSK1SV, hypoxia; for inducibility after 24 hours in hypoxia (rank) / luciferase activity in normoxia: transient CHO_GS
Protocol: 40 ml of cells were grown in a 250 ml vented Erlenmeyer flask (Sigma-Aldrich CLS431144) at 37° C., 20% O2, 8% CO2 with agitation at 100 rpm. Cells were seeded as at 300,000 cells/ml.
One day before transfection, the cells were counted using a haemocytometer and split to 500,000 cells/ml.
On the day of transfection, the cells are seeded to 1,000,000 cells/ml in 500 μl of appropriate medium (Thermofisher, CD-CHO 10743029) in a 24 well plate. […] of DNA per well was then added to 10 μl of OptiMem medium (Thermofisher; 11058021) and incubated for 5 minutes at room temperature.
Concurrently, 0.625 μl of Freestyle Max reagent (Thermofisher, 16447100) was made up to 10 μl by addition of OptiMem and incubated for 5 minutes at room temperature. After this incubation, both mixes were added to the same tube and incubated at room temperature for 25-30 minutes. The DNA/Max reagent mix (20 μl/well) was then added directly to the cells and the cells incubated at 37 C, 8% CO2 with agitation at 100 rpm.
The transfected DNA was one of the vectors where the promoter constructs (RTV-015, HYBT, RTV-016, HV3C) or a control promoter (CMV-IE) were used to drive luciferase expression and β-galactosidase containing pcDNA6 plasmid. The β-galactosidase containing plasmid was used as internal control for transfection efficiency (Thermofisher, V22020).
as §1, with “chamber. Luciferase activity was measured as described above.” for “chamber.”

B1: HV3C: synthetic hypoxia-inducible promoter, SEQ ID NO: 85/87; 4 HRE3 elements and CMV minimal promoter (nucleic acid)
DNA: GATCTTTGTATTTAATTAAGACCTTGAGTACGTGCGTCTCTGCACGTATGGCGATTAAGACCTTGAGTACGTGCGTCTCTGCACGTATGGCGATTAAGACCTTGAGTACGTGCGTCTCTGCACGTATGGCGATTAAGACCTTGAGTACGTGCGTCTCTGCACGTATGGCGATTAATCCATATGCAGGTCTATATAAGCAGAGCTCGTTTAGTGAACCGTCAGATCGCCTAGATACGCCATCCACGCTGTTTTGACCTCCATAGAAGATCGCCACC
modifications: Synp-HV3C
notes: 4 HRE3 elements and CMV minimal promoter
inducibility after 24 hours in hypoxia (rank) (HEK293-T): highest
luciferase activity in normoxia (HEK293-T): almost no luciferase activity
relative rank of promoter strength (HEK293-T): strongest
relative rank of promoter strength (CHO-GSK1SV): strongest
inducibility after 24 hours in hypoxia (rank) (CHO-GSK1SV): highest
luciferase activity in normoxia (CHO-GSK1SV): almost no luciferase activity

B2: RTV-015: synthetic hypoxia-inducible promoter, SEQ ID NO: 81; 5 HRE1 elements spaced by 40 bp and minimal promoter MP1 (nucleic acid)
DNA: ACGTGCGATGATGCGTAGCTAGTAGTGATGATGCGTAGCTAGTAGTACGTGCGATGATGCGTAGCTAGTAGTGATGATGCGTAGCTAGTAGTACGTGCGATGATGCGTAGCTAGTAGTGATGATGCGTAGCTAGTAGTACGTGCGATGATGCGTAGCTAGTAGTGATGATGCGTAGCTAGTAGTACGTGCTTGGTACCATCCGGGCCGGCCGCTTAAGCGACGCCTATAAAAAATAGGTTGCATGCTAGGCCTAGCGCTGCCAGTCCATCTTCGCTAGCCTGTGCTGCGTCAGTCCAGCGCTGCGCTGCGTAACGGCCGCC
modifications: Synp-RTV-015
notes: 5 HRE1 elements spaced by 40 bp and minimal promoter MP1
inducibility after 24 hours in hypoxia (rank) (HEK293-T): lowest
luciferase activity in normoxia (HEK293-T): almost no luciferase activity
relative rank of promoter strength (HEK293-T): weakest
relative rank of promoter strength (CHO-GSK1SV): weakest
inducibility after 24 hours in hypoxia (rank) (CHO-GSK1SV): lowest
luciferase activity in normoxia (CHO-GSK1SV): almost no luciferase activity
